Results taken from patent US20260265360A1, “USE OF ANTI-FAM19A5 ANTAGONISTS FOR TREATING HEARING DISORDERS” (NEURACLE SCIENCE CO., LTD., priority 2023, published 2026).

How the values were obtained:
FAM19A5 mutants M1 to M8 [1] = biological target: T1, FAM19A5 mutants M1 to M8 (Homo sapiens, UniProt Q7Z5A7); test: Epitope mapping ELISA with FAM19A5 mutants M1-M8; format: binding
T1 construct: made in house; host or cells: phage display with helper phage
Protocol: (§1) To further characterize the binding epitopes of the anti-FAM19A5 antibodies disclosed in the present disclosure, the amino acid sequences for the different FAM19 family members (i.e., FAM19A1-5) were aligned. […] The amino acid sequences of these regions were replaced with the consensus sequence of the corresponding regions for the FAM19A1-4 proteins. See Table 13 (the mutated amino acid residues are bolded and underlined).
(§2) The mutant FAM19A5-expressing phages were prepared as follows. To prepare the media for phage culture, 55.6 ml of 2M Glucose (D-(+)-Glucose, Sigma), 5 mL of 1M MgCl2 (Magnesium chloride, Junsei) 1 mL of 34 mg/mL chloramphenicol (Sigma) were added to 2×YT media. Colonies obtained through mono-phage ELISA were selected and placed in 5 mL of prepared media (2×YT-GMC) to be cultured for 16 hours at 37° C. with shaking incubator (VS-8480, Vision). 100 μL of each culture was transferred to 10 mL 2×YT-GMC individually which were cultured at 37° C. in the incubator until detection value at O.D. 600 nm reached 0.5. Once detection value has reached 0.5 at O.D. 600 nm, 5 mL of each culture were obtained as samples to be infected. Following sample preparation, 50 μL of […] was added to individual samples then incubated at 37° C. without shaking for 30 minutes and with shaking for additional 30 minutes. Individual cultures were centrifuged for 15 minutes at 3,850 rpm using Micro centrifuge (Micro12, Hanil). The supernatants of centrifuged cultures were removed to be kept separate and replaced with 5 mL of 2×YT media containing 1 mL of IM IPTG (AG Scientific), 5 mL of 1M MgCl2.1 ml of 70 μg/μL kanamycin (Biopure) and 1 mL of Chloramphenicol. The resulting pellets were dispersed thoroughly in newly added media followed by incubation at 30° C. for 16 hours with stirring.

FAM19A5 mutants M1 to M8 [2] = biological target: T2, FAM19A5 mutants M1 to M8 (Homo sapiens, UniProt Q7Z5A7, D98Q/K92L/K94R/L100E/P101L/Q95W/T93Q); test: Epitope mapping ELISA with FAM19A5 mutants M1-M8; format: binding
T2 construct: made in house; host or cells: phage display with helper phage
Protocol: as §1, §2

[3] = tested on: human FAM19A5 protein epitope fragments F1-F6; test: Epitope mapping: binding to BSA-conjugated FAM19A5 epitope fragments F1-F6 (Western blot / ELISA); conditions: for binding to epitope fragment F5: Western blot and/or ELISA
Protocol: (§3) Overlapping peptide fragments (F1-F6 epitope fragments; SEQ ID NOs: 178-183) of the human FAM19A5 protein were synthesized and conjugated to BSA (SEQ ID NOs: 322-327). Binding of the different anti-FAM19A5 antibodies to the BSA-conjugated peptide fragments F1-F6 was determined by Western blot analysis or ELISA assay. For the Western blot analysis, BSA-conjugated FAM19A5 fragments F1-F6 were separated by SDS polyacrylamide gel electrophoresis and transferred to a nitrocellulose membrane by the standard procedure. The membrane was incubated with the anti-FAM19A5 antibody (e.g., 1-65, […], 1-65-scFv-rabbit Fc-SSS), and the antigen-antibody complexes were detected with the appropriate secondary antibody conjugated with horse-radish peroxidase (anti-rabbit IgG (Fc specific)-HRP, 1:4000 dilution). For the ELISA assay, the following protocol was used. FAM19A5 fragment F1-F6 (diluted to 1 μg/mL in 50 mM carbonate buffer (Biosesang) or to 20 μg/mL for high concentration analysis) were used to coat the wells of 96-well immuno plates (Thermo Scientific) (100 μL/well) overnight at 4° C. and then subsequently washed twice in 1×PBS. The plates were then blocked with the blocking buffer (100 μL/well) for 1 hour at room temperature. During the 1-hour incubation, the relavant anti-FAM19A5 antibodies were diluted to 1 μg/mL (or 20 μg/mL for high concentration analysis) in the diluent buffer. Once the plates were washed (2× using 1×PBS), the diluted anti-FAM19A5 antibodies were added to the appropriate wells, and the plates were incubated at room temperature for 1 hour. The plates were subsequently washed for a total of five times using the washing buffer. Next, the ODP substrate (prepared by dissolving one ODP tablet (O-phenylenediamine Dihydrochloride, Thermo) into 9 mL of sterilized deionized water and 1 mL of 10× stable Peroxide Stable buffer (Theromo)) was added to each of the wells, and the color change reaction was allowed to occur for 10 minutes. This reaction was stopped by adding 100 μL of 2N H2SO4 (Daejung) to the wells. The absorption value of each of the wells was detected at 492 nm using a 96-well microplate reader (Molecular Device).

[4] = tested on: FAM19A5 epitope fragment F5 mutant peptides F5-1 to F5-8; test: ELISA binding to mutant F5 peptide fragments (alanine substitution); set-up: species or system human
Protocol: as §3
Next, to identify the specific amino acid residues within the eptitope fragment F5 that the 1-65 and P2-C12 antibodies bind to, different amino acid residues of the F5 fragment were replaced with alanine as shown in Table 11 (below). The mutated residues are bolded and underlined. The binding affinity of the indicated anti-FAM19A5 antibodies were measured using an ELISA assay as described above.

FAM19A5 antigen = FAM19A5 antigen (Homo sapiens, UniProt Q7Z5A7); test: Cross-competition two-site sandwich ELISA; format: binding; conditions: antibodies 1-65, P2-A03, P2-F11, 13B4, 2-13, 3-2; cross-competition = S/N ratio lower than 2
Protocol: The term “S/N” refers to the signal to noise ratio, which is measured as follows: [O.D. of 10 ng/ml antigen]/[O.D. of 0 ng/ml antigen].
Next, a two-site sandwich ELISA was used as described below to assess whether the different anti-FAM19A5 antibodies with similar binding epitopes cross-compete with each other.
First, the indicated anti-FAM19A5 antibodies were diluted in 1×PBS to a concentration of 10 μg/mL. The diluted anti-FAM19A5 antibodies (10 μg/mL in 1×PBS) (“capture antibody”) were used to coat the 96-well plates (100 μL/well) at 37° C. for approximately 1 hour. After the incubation, the plates were washed with the washing buffer (0.01% Tween-20/PBS; also called 0.01% PBST) for a total of five washes, blocked with the blocking solution (5% BSA/PBS; also called 5% PBSA) (250 μL/well) for one hour at 37° C., and then washed again. Next, 100 μg/mL of the FAM19A5 antigen (diluted in PBS containing 5% BSA, 0.01% Tween-20; also called 5% PBSAT; “diluent buffer) was added to each of the wells, and the 96-well plates were incubated for 2 hours at 37° C. After the incubations, the plates were washed using 0.01% PBST for a total of five washes. After the final wash, the indicated biotinylated anti-FAM19A5 antibodies (“detection antibody”) (diluted to lug/mL in 5% PBSAT) were added to the relevant wells (100 μL volume) and the plates were incubated for an additional 1 hour at 37° C. Afterwards, the plates were washed again with 0.01% PBST (five total washes). Next, 100 μL of the diluted (1/2000 in 5% PBSAT) Streptavidin-HRP (1 mg/mL, Sigma, USA) was added to the wells, and the plates were incubated for 30 minutes at room temperature. The plates were then washed and treated with 100 μL of the TMB substrate ([…], Thermo Fisher Scientific). After an additional 30-minute incubation at room temperature, the color change reaction was induced by the addition of the TMB substrate. This reaction was stopped using 50 μL of sulfuric acid (2N H2SO4), and the extent of color change was detected via absorption at 450 nm with reference wavelength at 620 nm using a 96 well microplate reader (Molecular Device).

FAM19A5 mutants M1 to M8 [5] = biological target: T3, FAM19A5 mutants M1 to M8 (Homo sapiens, UniProt Q7Z5A7, D109K/G107E/I112P/L110T/N113D/R114N); test: Epitope mapping ELISA with FAM19A5 mutants M1-M8; format: binding
T3 construct: made in house; host or cells: phage display with helper phage
Protocol: as §1, §2

T2 sequence (Q7Z5A7 26-125 isoform Q7Z5A7-2 K85L/T86Q/K87R/Q88W/D91Q/L93E/P94L): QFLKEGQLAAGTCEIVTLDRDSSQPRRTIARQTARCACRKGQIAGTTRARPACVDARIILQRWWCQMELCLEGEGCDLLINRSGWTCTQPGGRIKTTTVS
T1 sequence (Q7Z5A7 with tags, fused parts or gaps isoform Q7Z5A7-2, change not shown): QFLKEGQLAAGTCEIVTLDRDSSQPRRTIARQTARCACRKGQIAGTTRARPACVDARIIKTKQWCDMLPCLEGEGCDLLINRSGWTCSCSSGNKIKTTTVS
FAM19A5 antigen, sequence (Q7Z5A7 44-132): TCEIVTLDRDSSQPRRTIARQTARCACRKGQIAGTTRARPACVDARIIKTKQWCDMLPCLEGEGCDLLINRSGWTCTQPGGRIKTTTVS
T3 sequence (Q7Z5A7 26-125 isoform Q7Z5A7-2 G100E/D102K/L103T/I105P/N106D/R107N): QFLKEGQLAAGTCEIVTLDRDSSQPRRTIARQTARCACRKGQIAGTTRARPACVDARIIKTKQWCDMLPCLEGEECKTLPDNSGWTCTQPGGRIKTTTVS

Row | binding to FAM19A5 mutant M8 (FAM19A5 mutants M1 to M8 [1]) | binding to FAM19A5 mutant M6 (FAM19A5 mutants M1 to M8 [2]) | binding to F5 mutant peptides #1, 6, and 8 [4] | binding to F5 mutant peptides #2, 3, 4, 5, and 7 [4] | cross-competition with the other anti-FAM19A5 antibodies (FAM19A5 antigen) | binding to FAM19A5 mutant M7 (FAM19A5 mutants M1 to M8 [5]) | binding to F5 fragment with D13, L14, I16 or R18 mutated to alanine ([4]; numbering per SEQ ID NO: 275) | binding to F5 mutant peptides #1, 5, 6, and 7 ([4]; similar affinity) | Molecule | binding to the other fragments (F1-F4 and F6) ([3]; ELISA) | binding to epitope fragment F5 [3]
1 | strongly binding | failed to bind | not to mutant peptides #1, 6, and 8 | high binding |  |  |  |  | P2-C12: anti-FAM19A5 antibody; VH SEQ ID NO: 155, VL SEQ ID NO: 166 (antibody, V domains shown, P2-C12 VH; P2-C12 VL) VH: QSLEESGGRLVTPGTPLTLTCTVSGFSLSTYAVTWVRQAPGKGLEWIGYINWRGGTSYANWAKGRFTISKTSSTTVDLKMTSPTTEDTATYFCARDASSGAAFGSYGMDPWGPGTLVTVSS VL: ELDMTQTPSSVSAAVGGTVTIKCQASQSISSYLSWYQQKPGQPPKLLIYEASKLASGVPSRFSGSGYGTEFTLTISDLECADAATYYCQQGYSSTNVWNAFGGGTNVEIK | not significantly | strongly
2 | failed to bind | failed to bind |  |  | cross-competed with one another | failed to bind | no longer able to bind | able to bind | 1-65: anti-FAM19A5 antibody; VH SEQ ID NO: 37, VL SEQ ID NO: 41 (antibody, V domains shown, 1-65 VH; 1-65 VL) VH: AVTLDESGGGLQTPGGALSLVCKASGFTFSSYQMGWVRQAPGKGLEWVGVINKSGSDTSYGSAVKGRATISRDNGQSTVRLQLNNLRAEDTGTYFCAKGSASYITAATIDAWGHGTEVIVSS VL: ALTQPSSVSANPGETVKITCSGGGSSGYGYGWYQQKSPSSAPLTVIYWNDKRPSDIPSRFSGSKSGSTHTLTITGVQAEDEAVYFCGNDDYSSDSGYVGVFGAGTTLTVL |  | bound strongly
